From paper PMC6958441, “Role of the Metal Center in the Modulation of the Aggregation Process of Amyloid Model Systems by Square Planar Complexes Bearing 2-(2′-pyridyl)benzimidazole Ligands” (Pharmaceuticals, 2019)

Biological target: the molecule itself
Assay: ESI-MS; peptide alone (control) at 100 µM in 15 mM ammonium acetate pH 6.8, 25 °C, direct injection, Q-ToF; the dimer is also seen in the samples with the metal complexes 1-3

B1: NPM1_(264–277), fragment corresponding to the 2nd helix (residues 264–277) of the C-terminal domain of nucleophosmin 1 (peptide)
peptide: Ac-VEAKFINYVKNCFR-NH2
notes: The dimer seen by ESI-MS is held by a disulfide bridge through the single cysteine of the peptide; A species of 1874 Da (monomer adduct on the Cys) and oxidised forms were also in the sample; source: synthetic peptide, treated with HFIP, purified through RP-HPLC
stoichiometry N: 2
